Experimental data as given in the Human Domainome abundance scans (Beltran et al. 2025).
± gives the uncertainty stated by the source.

B1: Histone H1t, residues 44 to 112; numbered along this chain, P22492 (parent)
chain: VSKLITEALSVSQERVGMSLVALKKALAAAGYDVEKNNSRIKLSLKSLVNKGILVQTRGTGASGSFKLS

Variants of: B1
Experiment: abundance fitness (aPCA) (normalised: wild type 0, dead -1); higher = more abundant; growth selection in yeast, the domain comes from the species named
Details: Homo sapiens

Abundance fitness of substitutions, site by site:
K3: F -0.595 ± 0.091 | S -0.297 ± 0.092 | R -0.251 ± 0.043 | G -0.45 ± 0.035 | L -0.474 ± 0.043 | W -0.691 ± 0.042 | N -0.139 ± 0.13 | M -0.583 ± 0.054 | Y -0.717 ± 0.17 | V -0.431 ± 0.041 | E 0.001 ± 0.05 | I -0.656 ± 0.072
E7: M -0.63 ± 0.052 | K -0.12 ± 0.05 | Y -0.589 ± 0.036 | S -0.497 ± 0.095 | A -0.996 ± 0.26 | W -0.275 ± 0.21 | Q -0.429 ± 0.15 | G -1.05 ± 0.21 | C -0.493 ± 0.11 | V -0.826 ± 0.088 | F -0.808 ± 0.038 | L -0.89 ± 0.044 | D -0.101 ± 0.073 | R 0.032 ± 0.16 | N -0.118 ± 0.042 | I -0.739 ± 0.047
S10: Y -0.286 ± 0.04 | I -0.316 ± 0.038 | V -0.167 ± 0.058 | G 0.027 ± 0.1 | E -0.41 ± 0.26 | D -0.029 ± 0.087 | L -0.261 ± 0.029 | W -0.788 ± 0.13 | Q -0.165 ± 0.12 | N -0.024 ± 0.053 | M -0.175 ± 0.034 | H -0.275 ± 0.14 | K -0.17 ± 0.062 | R -0.129 ± 0.084 | F -0.655 ± 0.034 | P -0.835 ± 0.18 | C -0.43 ± 0.087 | T 0.016 ± 0.064
L9: N -0.826 ± 0.062 | Q -0.697 ± 0.23 | T 0.03 ± 0.13 | Y -0.1 ± 0.039 | K -0.194 ± 0.051 | S -0.66 ± 0.1 | H -0.915 ± 0.47 | V -0.301 ± 0.36 | M -0.145 ± 0.043 | C -0.401 ± 0.41 | I 0.045 ± 0.039 | F -0.061 ± 0.027
V11: G -0.101 ± 0.032 | E -0.106 ± 0.063 | I -0.185 ± 0.058 | D -0.138 ± 0.055 | M -0.255 ± 0.056 | N -0.144 ± 0.071 | R -0.013 ± 0.047 | W -0.04 ± 0.041 | F -0.138 ± 0.035 | S -0.061 ± 0.056 | L -0.129 ± 0.034 | C -0.077 ± 0.037 | Y -0.027 ± 0.043 | K 0.053 ± 0.064
T6: Y -0.298 ± 0.19 | K 0.092 ± 0.066 | G -0.629 ± 0.15 | F -0.578 ± 0.14 | I -0.071 ± 0.098 | P -1.24 ± 0.14 | V -0.153 ± 0.082 | N -0.031 ± 0.097 | D -0.299 ± 0.21 | C -0.181 ± 0.1 | A -0.536 ± 0.14 | E -0.112 ± 0.12 | R -0.04 ± 0.074 | W -0.737 ± 0.15 | L -0.222 ± 0.056 | Q -0.002 ± 0.15 | M -0.098 ± 0.061 | S -0.168 ± 0.082 | H -0.05 ± 0.25
L4: W -0.506 ± 0.32
E14: C -0.838 ± 0.46 | D -0.271 ± 0.36 | A -0.456 ± 0.19 | F -0.852 ± 0.039 | K -0.449 ± 0.083 | H -0.373 ± 0.087 | I -0.712 ± 0.055
S12: I 0.042 ± 0.04 | E -0.429 ± 0.081 | P -0.486 ± 0.18 | C 0.024 ± 0.067 | L -0.005 ± 0.032 | R -0.511 ± 0.057 | A -0.007 ± 0.08 | V 0.095 ± 0.049 | G 0.019 ± 0.048 | N -0.202 ± 0.052 | Y -0.48 ± 0.042 | M -0.093 ± 0.044 | D 0.019 ± 0.076 | F -0.038 ± 0.032 | Q -0.034 ± 0.09 | W -0.416 ± 0.068 | K -0.275 ± 0.054 | H -0.353 ± 0.13
Q13: N -0.206 ± 0.053 | S -0.242 ± 0.044 | F -0.613 ± 0.041 | L -0.33 ± 0.033 | K 0.014 ± 0.05 | E -0.05 ± 0.14 | G -0.211 ± 0.065 | T -0.128 ± 0.057 | D -0.222 ± 0.14 | C -0.233 ± 0.07 | V -0.342 ± 0.069 | M -0.377 ± 0.046 | Y -0.212 ± 0.042 | R -0.093 ± 0.062 | W -0.471 ± 0.091 | A -0.286 ± 0.095
A8: H -0.324 ± 0.11 | I -0.032 ± 0.04 | G -0.522 ± 0.053 | N -0.531 ± 0.078 | T -0.447 ± 0.14 | C -0.137 ± 0.056 | E -0.719 ± 0.13 | K -0.411 ± 0.076 | D -1.13 ± 0.14 | R -0.335 ± 0.056 | W -0.026 ± 0.05 | M -0.163 ± 0.038 | L -0.275 ± 0.027 | S -0.42 ± 0.055 | Y -0.345 ± 0.043 | P -1.06 ± 0.22 | Q -0.584 ± 0.13 | F -0.217 ± 0.029
I5: A -0.705 ± 0.11 | R -1.24 ± 0.12 | T -0.985 ± 0.16 | M -0.33 ± 0.043 | Q -1.28 ± 0.27 | F -0.372 ± 0.038 | L -0.244 ± 0.029 | W -0.46 ± 0.072 | G -0.942 ± 0.074 | C -0.415 ± 0.083 | H -1.46 ± 0.39 | N -0.664 ± 0.15 | D -1.04 ± 0.22 | V -0.267 ± 0.049 | P -1.16 ± 0.19 | E -1.13 ± 0.24
